Laboratory results from US20050222029A1 (MYRIAD GENETICS, published 2005).

How the values were obtained:
Assay in all cases: yeast two-hybrid
[1] = target: T1, GTPase-activiating protein 1 1308-1606 (human, UniProt P46940 1308-1606)
T1 construct: prey (Gal4 AD-HA fusion); also called IQGAP1; IQGAP
T1 sequence (looked up): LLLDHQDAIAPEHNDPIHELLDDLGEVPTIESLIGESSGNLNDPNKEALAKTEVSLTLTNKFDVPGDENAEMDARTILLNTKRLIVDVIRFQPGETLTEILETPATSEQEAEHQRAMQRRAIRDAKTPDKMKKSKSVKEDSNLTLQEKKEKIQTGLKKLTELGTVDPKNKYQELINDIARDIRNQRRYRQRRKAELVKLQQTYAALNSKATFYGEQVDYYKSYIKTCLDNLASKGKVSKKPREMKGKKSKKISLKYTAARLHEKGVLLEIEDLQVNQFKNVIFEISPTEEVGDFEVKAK

[2] = target: T2, GTPase-activiating protein 1 1392-1657 (human, UniProt P46940 1392-1657)
T2 construct: prey (Gal4 AD-HA fusion); also called IQGAP1; IQGAP
T2 sequence (looked up): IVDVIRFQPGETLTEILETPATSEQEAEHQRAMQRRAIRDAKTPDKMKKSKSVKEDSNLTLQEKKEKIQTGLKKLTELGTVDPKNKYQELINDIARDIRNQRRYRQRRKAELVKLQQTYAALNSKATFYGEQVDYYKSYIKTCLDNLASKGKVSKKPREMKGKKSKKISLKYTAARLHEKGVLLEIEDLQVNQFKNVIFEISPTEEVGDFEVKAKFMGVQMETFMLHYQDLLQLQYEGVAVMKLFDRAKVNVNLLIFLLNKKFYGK

[3] = target: T3, Mitotic spindle coiled-coil related protein 668-895 (human, UniProt Q96R06 668-895)
T3 construct: prey (Gal4 AD-HA fusion)
T3 sequence (looked up): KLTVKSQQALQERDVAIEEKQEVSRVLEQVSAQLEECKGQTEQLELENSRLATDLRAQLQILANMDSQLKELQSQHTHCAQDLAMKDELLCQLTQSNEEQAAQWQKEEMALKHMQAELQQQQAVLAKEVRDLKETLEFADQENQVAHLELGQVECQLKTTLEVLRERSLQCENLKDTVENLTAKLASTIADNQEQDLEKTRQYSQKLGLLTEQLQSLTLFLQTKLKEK

[4] = target: T4, Mitotic spindle coiled-coil related protein 723-1012 (human, UniProt Q96R06 723-1012)
T4 construct: prey (Gal4 AD-HA fusion)
T4 sequence (looked up): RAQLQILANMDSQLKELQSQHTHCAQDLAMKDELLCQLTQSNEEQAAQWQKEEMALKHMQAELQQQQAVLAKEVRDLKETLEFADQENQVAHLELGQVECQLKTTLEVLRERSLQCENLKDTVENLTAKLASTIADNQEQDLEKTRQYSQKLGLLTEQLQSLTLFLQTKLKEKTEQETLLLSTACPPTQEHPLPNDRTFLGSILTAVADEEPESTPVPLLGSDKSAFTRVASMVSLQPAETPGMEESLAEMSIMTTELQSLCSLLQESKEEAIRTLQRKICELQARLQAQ

[5] = target: T5, Mitotic spindle coiled-coil related protein 701-1082 (human, UniProt Q96R06 701-1082)
T5 construct: prey (Gal4 AD-HA fusion)
T5 sequence (looked up): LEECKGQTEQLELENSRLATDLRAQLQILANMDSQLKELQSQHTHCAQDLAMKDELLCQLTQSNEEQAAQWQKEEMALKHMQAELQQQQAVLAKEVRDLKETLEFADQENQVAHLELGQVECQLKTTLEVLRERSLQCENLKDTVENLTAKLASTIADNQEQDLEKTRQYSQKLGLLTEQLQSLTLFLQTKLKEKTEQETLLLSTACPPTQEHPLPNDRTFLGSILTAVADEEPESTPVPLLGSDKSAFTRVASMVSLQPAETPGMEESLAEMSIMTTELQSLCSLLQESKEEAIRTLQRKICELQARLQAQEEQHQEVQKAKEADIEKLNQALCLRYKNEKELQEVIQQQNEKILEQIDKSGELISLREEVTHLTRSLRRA

Intersection 1 210-633 = target: T6, Intersection 1 210-633 (human, UniProt Q15811 210-633)
T6 construct: prey (Gal4 AD-HA fusion); also called Intersectin 1; ITSN1
T6 sequence (looked up): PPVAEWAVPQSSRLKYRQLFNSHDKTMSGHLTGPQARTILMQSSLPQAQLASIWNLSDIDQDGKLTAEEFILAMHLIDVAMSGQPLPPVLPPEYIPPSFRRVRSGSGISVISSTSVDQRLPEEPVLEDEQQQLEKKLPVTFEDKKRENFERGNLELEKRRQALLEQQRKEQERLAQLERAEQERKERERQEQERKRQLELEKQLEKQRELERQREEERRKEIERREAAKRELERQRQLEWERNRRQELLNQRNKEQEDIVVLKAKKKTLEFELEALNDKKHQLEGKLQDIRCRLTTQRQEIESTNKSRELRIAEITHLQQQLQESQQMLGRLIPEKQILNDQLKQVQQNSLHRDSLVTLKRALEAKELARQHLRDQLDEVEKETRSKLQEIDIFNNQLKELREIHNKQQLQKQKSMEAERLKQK

Keratin 5 282-448 = target: T7, Keratin 5 282-448 (human, UniProt P13647 282-448)
T7 construct: prey (Gal4 AD-HA fusion)
T7 sequence (looked up): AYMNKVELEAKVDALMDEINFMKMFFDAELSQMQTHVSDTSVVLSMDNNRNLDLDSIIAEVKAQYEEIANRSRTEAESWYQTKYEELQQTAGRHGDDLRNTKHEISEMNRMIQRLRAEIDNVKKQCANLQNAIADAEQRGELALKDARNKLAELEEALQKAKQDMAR

Measured: binding result

B1: Tumor Suppressor (TSG101) 240-391 (other, human, UniProt Q99816 240-390, looked up)
chain: WRMKEEMDRAQAELNALKRTEEDLKKGHQKLEEMVTRLDQEVAEVDKNIELLKKKDEELSSALEKMENQSENNDIDEVIIPTAPLYKQILNLYAEENAIEDTIFYLGEALRRGVIDLDVFLKHVRLLSRKQFQLRALMQKARKTAGLSDLY
notes: range 240-391; bait (Gal4 DBD fusion); also called TSG101 240-390
binds: [1] | [2] | [3] | [4] | [5] | Intersection 1 210-633 | Keratin 5 282-448
